Measurements taken from patent US20020103133.

Assays:
acetyl-G-P-L-G-L-A-L-Dox = molecular target: T1, acetyl-G-P-L-G-L-A-L-Dox
T1 chain: XPLGLAL

acetyl-G-P-L-G-L-L-Dox = molecular target: T2, acetyl-G-P-L-G-L-L-Dox
T2 chain: XPLGLL

acetyl-G-P-L-G-L-Y-Dox = molecular target: T3, acetyl-G-P-L-G-L-Y-Dox
T3 chain: XPLGLY

[1] = molecular target: T4, acetyl-P-L-G-Hof-Orn-L-Dox
T4 chain: XLGXXL

acetyl-P-L-G-Hof-Y-L-Dox = molecular target: T5, acetyl-P-L-G-Hof-Y-L-Dox
T5 chain: XLGXYL

acetyl-P-L-G-L-A-A-L-Dox = molecular target: T6, acetyl-P-L-G-L-A-A-L-Dox
T6 chain: XLGLAAL

acetyl-P-L-G-L-A-L-Dox = molecular target: T7, acetyl-P-L-G-L-A-L-Dox
T7 chain: XLGLAL

acetyl-P-L-G-L-L-A-L-Dox = molecular target: T8, acetyl-P-L-G-L-L-A-L-Dox
T8 chain: XLGLLAL

acetyl-P-L-G-L-L-Dox = molecular target: T9, acetyl-P-L-G-L-L-Dox
T9 chain: XLGLL

acetyl-P-L-G-L-L-S-L-Dox = molecular target: T10, acetyl-P-L-G-L-L-S-L-Dox
T10 chain: XLGLLSL

acetyl-P-L-G-L-Y-A-L-Dox = molecular target: T11, acetyl-P-L-G-L-Y-A-L-Dox
T11 chain: XLGLYAL

acetyl-P-L-G-L-Y-L-Dox = molecular target: T12, acetyl-P-L-G-L-Y-L-Dox
T12 chain: XLGLYL

[2] = molecular target: T13, succinyl-P-L-G-Hof-Y-L-Dox
T13 chain: XLGXYL

Protein | kcat/Km (cleavage of conjugate, HPLC) (acetyl-G-P-L-G-L-A-L-Dox) | kcat/Km (cleavage of conjugate, HPLC) (acetyl-G-P-L-G-L-L-Dox) | kcat/Km (cleavage of conjugate, HPLC) (acetyl-G-P-L-G-L-Y-Dox) | kcat/Km (cleavage of conjugate, HPLC) [1] | kcat/Km (cleavage of conjugate, HPLC) (acetyl-P-L-G-Hof-Y-L-Dox) | kcat/Km (cleavage of conjugate, HPLC) (acetyl-P-L-G-L-A-A-L-Dox) | kcat/Km (cleavage of conjugate, HPLC) (acetyl-P-L-G-L-A-L-Dox) | kcat/Km (cleavage of conjugate, HPLC) (acetyl-P-L-G-L-L-A-L-Dox) | kcat/Km (cleavage of conjugate, HPLC) (acetyl-P-L-G-L-L-Dox) | kcat/Km (cleavage of conjugate, HPLC) (acetyl-P-L-G-L-L-S-L-Dox) | kcat/Km (cleavage of conjugate, HPLC) (acetyl-P-L-G-L-Y-A-L-Dox) | kcat/Km (cleavage of conjugate, HPLC) (acetyl-P-L-G-L-Y-L-Dox) | kcat/Km (cleavage of conjugate, HPLC) [2]
MMP-2 (protein) YNFFPRKPKWDKNQITYRIIGYTPDLDPETVDDAFARAFQVWSDVTPLRFSRIHDGEADIMINFGRWEHGDGYPFDGKDGLLAHAFAPGTGVGGDSHFDDDELWTLGEGQVVRVKYGNADGEYCKFPFLFNGKEYNSCTDTGRSDGFLWCSTTYNFEKDGKYGFCPHEALFTMGGNAEGQPCKFPFRFQGTSYDSCTTEGRTDGYRWCGTTEDYDRDKKYGFCPETAMSTVGGNSEGAPCVFPFTFLGNKYESCTSAGRSDGKMWCATTANYDDDRKWGFCPDQGYSLFLVAAHEFGHAMGLEHSQDPGALMAPIYTYTKNFRLSQDDIKGIQELYGASPDIDLGTGPTPTLGPVTPEICKQDIVFDGIAQIRGEIFFFKDRFIWRTVTPRDKPMGPLLVATFWPELPEKIDAVYEAPQEEKAVFFAGNEYWIYSASTLERGYPKPLTSLGLPPDVQRVDAAFNWSKNKKTYIFAGDKFWRYNEVKKKMDPGFPKLIADAWNAIPDNLDAVVDLQGGGHSYFFKGAYYLKLENQSLKSVKFGSIKSDWLGC | 8.6e+07 M⁻¹ s⁻¹ | 3e+07 M⁻¹ s⁻¹ | 4e+07 M⁻¹ s⁻¹ | 1.36e+08 M⁻¹ s⁻¹ | > 1.2e+08 M⁻¹ s⁻¹ | 1.1e+08 M⁻¹ s⁻¹ | 5.3e+07 M⁻¹ s⁻¹ | 6.3e+07 M⁻¹ s⁻¹ | 1.8e+07 M⁻¹ s⁻¹ | 1.03e+08 M⁻¹ s⁻¹ | 1.9e+08 M⁻¹ s⁻¹ | 8.8e+07 M⁻¹ s⁻¹ | > 1.2e+08 M⁻¹ s⁻¹
Neprilysin (protein) YDDGICKSSDCIKSAARLIQNMDATTEPCTDFFKYACGGWLKRNVIPETSSRYGNFDILRDELEVVLKDVLQEPKTEDIVAVQKAKALYRSCINESAIDSRGGEPLLKLLPDIYGWPVATENWEQKYGASWTAEKAIAQLNSKYGKKVLINLFVGTDDKNSVNHVIHIDQPRLGLPSRDYYECTGIYKEACTAYVDFMISVARLIRQEERLPIDENQLALEMNKVMELEKEIANATAKPEDRNDPMLLYNKMTLAQIQNNFSLEINGKPFSWLNFTNEIMSTVNISITNEEDVVVYAPEYLTKLKPILTKYSARDLQNLMSWRFIMDLVSSLSRTYKESRNAFRKALYGTTSETATWRRCANYVNGNMENAVGRLYVEAAFAGESKHVVEDLIAQIREVFIQTLDDLTWMDAETKKRAEEKALAIKERIGYPDDIVSNDNKLNNEYLELNYKEDEYFENIIQNLKFSQSKQLKKLREKVDKDEWISGAAVVNAFYSSGRNQIVFPAGILQPPFFSAQQSNSLNYGGIGMVIGHEITHGFDDNGRNFNKDGDLVDWWTQQSASNFKEQSQCMVYQYGNFSWDLAGGQHLNGINTLGENIADNGGLGQAYRAYQNYIKKNGEEKLLPGLDLNHKQLFFLNFAQVWCGTYRPEYAVNSIKTDVHSPGNFRIIGTLQNSAEFSEAFHCRKNSYMNPEKKCRVW | 4.2e+07 M⁻¹ s⁻¹ | 2e+07 M⁻¹ s⁻¹ | 1.9e+07 M⁻¹ s⁻¹ | < 1e+06 M⁻¹ s⁻¹ | < 1e+06 M⁻¹ s⁻¹ | 1.2e+08 M⁻¹ s⁻¹ | 4.9e+07 M⁻¹ s⁻¹ | 1e+08 M⁻¹ s⁻¹ | 2.2e+07 M⁻¹ s⁻¹ | 8.2e+07 M⁻¹ s⁻¹ | 3.88e+08 M⁻¹ s⁻¹ | 2.2e+07 M⁻¹ s⁻¹ | < 1e+06 M⁻¹ s⁻¹
